Assay results from PMC3979729.

Molecular target: TNFR (human (endogenous in primary CD4+ T cells)) (UniProt P19438)
Sequence of UniProt P19438 (P19438 30-455): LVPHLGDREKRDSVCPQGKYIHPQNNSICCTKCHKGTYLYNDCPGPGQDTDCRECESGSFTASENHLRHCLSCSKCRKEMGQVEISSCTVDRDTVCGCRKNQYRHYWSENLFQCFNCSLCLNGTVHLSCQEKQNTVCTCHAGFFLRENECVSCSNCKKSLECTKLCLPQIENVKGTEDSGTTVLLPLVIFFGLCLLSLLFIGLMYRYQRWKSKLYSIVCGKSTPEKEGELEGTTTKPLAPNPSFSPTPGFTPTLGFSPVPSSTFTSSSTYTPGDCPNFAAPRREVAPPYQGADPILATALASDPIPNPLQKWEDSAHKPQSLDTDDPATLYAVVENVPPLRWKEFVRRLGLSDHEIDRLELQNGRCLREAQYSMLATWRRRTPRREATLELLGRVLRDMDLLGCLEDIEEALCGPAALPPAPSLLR

## tumor necrosis factor alpha (TNF-α) (from UniProt P01375 1-233) (ligand)
  other (% necroptosis): 0.3
